Reference: the RNAGym collection of RNA variant scans (doi:10.7554/elife.80360)

B1: HDV Ribozyme (parent)
chain: GGCCGGCAUGGUCCCAGCCUCCUCGCUGGCGCCGGCUGGGCAACAUUCCGAGGGGACCGUCCCCUCGGUAAUGGCGAAUGGGACCCA

Variants of: B1
Test: self-cleavage, relative activity (ratio to wild type); higher = more cleavage; co-transcriptional

| Variant | self-cleavage |
| --- | --- |
| GGCCGGCAUGGUCCCAGCCUCCUCGCUGGCGCCGGCUGAGCAACAUUCCGAGGGGACCGUCCCCUCGGUAAUGGCGAAUGUGACCCA [G39A G81U] | 0.147 |
| GGCCGGCAUGGUCCCAGCCUCCUCGCUGGCGCCGGCUGCGCAGCAUUCCGAGGGGACCGUCCCCUCGGUAAUGGCGAAUGGGACCCA [G39C A43G] | 0.147 |
| GGCCGGCAUGGUCCCAGCCUCCUCGCUGGCGCCGGCUGCGCAUCAUUCCGAGGGGACCGUCCCCUCGGUAAUGGCGAAUGGGACCCA [G39C A43U] | 0 |
| GGCCGGCAUGGUCCCAGCCUCCUCGCUGGCGCCGGCUGCGCACCAUUCCGAGGGGACCGUCCCCUCGGUAAUGGCGAAUGGGACCCA [G39C A43C] | 0.138 |
| GGCCGGCAUGGUCCCAGCCUCCUCGCUGGCGCCGGCUGCGCAACAUUCCGAGGGGACCGUCCCCUCGGUAAUGGCGAAUGGGACCCA [G39C] | 0.245 |
| GGCCGGCAUGGUCCCAGCCUCCUCGCUGGCGCCGGCUGAGCAACAAUCCGAGGGGACCGUCCCCUCGGUAAUGGCGAAUGGGACCCA [G39A U46A] | 0.0773 |
| GGCCGGCAUGGUCCCAGCCUCCUCGCUGGCGCCGGCUGAGCAACAUUCCGAGGGGACCGUCCCCUCGGUAAUCGCGAAUGGGACCCA [G39A G73C] | 0.205 |
| GGCCGGCAUGGUCCCAGCCUCCUCGCUGGCGCCGGCUGAGCAACAUUCCGAGGGGACCGUCCCCUCGGUAAUGGCGAAGGGGACCCA [G39A U79G] | 0.262 |
| GGCCGGCAUGGUCCCAGCCUCCUCGCUGGCGCCGGCUGAGCAACAUUCCGAGGGGACCGUCCCCUCGGUAAUGGCGAAAGGGACCCA [G39A U79A] | 0.162 |
| GGCCGGCAUGGUCCCAGCCUCCUCGCUGGCGCCGGCUGAGCAACAUUCCGAGGGGACCGUCCCCUCGGUAAUGGCGAACGGGACCCA [G39A U79C] | 0.0723 |
| GGCCGGCAUGGUCCCAGCCUCCUCGCUGGCGCCGGCUGAGCAACAUUCCGAGGGGACCGUCCCCUCGGUAAUGGCCAAUGGGACCCA [G39A G76C] | 0.57 |
| GGCCGGCAUGGUCCCAGCCUCCUCGCUGGCGCCGGCUGAGCAACAUUCCGAGGGGACCGUCCCCUCGGUAAUGGCUAAUGGGACCCA [G39A G76U] | 0.873 |
| GGCCGGCAUGGUCCCAGCCUCCUCGCUGGCGCCGGCUGAGCAACAUGCCGAGGGGACCGUCCCCUCGGUAAUGGCGAAUGGGACCCA [G39A U47G] | 0.185 |
| GGCCGGCAUGGUCCCAGCCUCCUCGCUGGCGCCGGCUGAGCAACAUUCCGAGGGGACCGUCCCCUCGGUAAUGGCGAAUUGGACCCA [G39A G80U] | 0.178 |
| GGCCGGCAUGGUCCCAGCCUCCUCGCUGGCGCCGGCUGAGCAACAUUCCGAGGGGACCGUCCCCUCGGUAAUGGCGAAUAGGACCCA [G39A G80A] | 0.229 |
| GGCCGGCAUGGUCCCAGCCUCCUCGCUGGCGCCGGCUGAGCAACAUUCCGAGGGGACCGUCCCCUCGAUAAUGGCGAAUGGGACCCA [G39A G68A] | 0.415 |

| Variant | self-cleavage |
| --- | --- |
| GGCCGGCAUGGUCCCAGCCUCCUCGCUGGCGCCGGCUGCGCUACAUUCCGAGGGGACCGUCCCCUCGGUAAUGGCGAAUGGGACCCA [G39C A42U] | 0.227 |
| GGCCGGCAUGGUCCCAGCCUCCUCGCUGGCGCCGGCUGCGCGACAUUCCGAGGGGACCGUCCCCUCGGUAAUGGCGAAUGGGACCCA [G39C A42G] | 0.0811 |
| GGCCGGCAUGGUCCCAGCCUCCUCGCUGGCGCCGGCUGAGCAACAUUCCGAGGGGACCGACCCCUCGGUAAUGGCGAAUGGGACCCA [G39A U60A] | 0.268 |
| GGCCGGCAUGGUCCCAGCCUCCUCGCUGGCGCCGGCUGAGCAACAUUCCGAGGGGACCGCCCCCUCGGUAAUGGCGAAUGGGACCCA [G39A U60C] | 0.746 |
| GGCCGGCAUGGUCCCAGCCUCCUCGCUGGCGCCGGCUGAGCAACAUUCCGAGGGGACCGUCCCCUCGGUAAAGGCGAAUGGGACCCA [G39A U72A] | 0.133 |
| GGCCGGCAUGGUCCCAGCCUCCUCGCUGGCGCCGGCUGAGCAACAUUCCGAGGGGACCGUCCCCUCCGUAAUGGCGAAUGGGACCCA [G39A G67C] | 0.665 |
| GGCCGGCAUGGUCCCAGCCUCCUCGCUGGCGCCGGCUGAGCAACAUUCCGAGGGGACCGUCCCCUCGGUAAUGACGAAUGGGACCCA [G39A G74A] | 0.172 |
| GGCCGGCAUGGUCCCAGCCUCCUCGCUGGCGCCGGCUGAGCAACAUUCCGAGGGGACCGUCCCCUCGGUAAUGCCGAAUGGGACCCA [G39A G74C] | 0.147 |
| GGCCGGCAUGGUCCCAGCCUCCUCGCUGGCGCCGGCUGAGCAACAUUCCGAGGGGACCGUCCCCUCGGUAAUGGCGAAUGGCACCCA [G39A G82C] | 0.128 |
| GGCCGGCAUGGUCCCAGCCUCCUCGCUGGCGCCGGCUGAGCAACAUUCCGAGGGGACCGUCCCCUCGGUAAUGGCGAAUGGAACCCA [G39A G82A] | 0.136 |
| GGCCGGCAUGGUCCCAGCCUCCUCGCUGGCGCCGGCUGAGCAACAUUCCGAGGGGACCGUCCCCUCGGAAAUGGCGAAUGGGACCCA [G39A U69A] | 0.443 |
| GGCCGGCAUGGUCCCAGCCUCCUCGCUGGCGCCGGCUGAGCAACAUUCCGAGGGGACCGUCCCCUCGGCAAUGGCGAAUGGGACCCA [G39A U69C] | 0.609 |
| GGCCGGCAUGGUCCCAGCCUCCUCGCUGGCGCCGGCUGAGCAACAUUCCGAGGGGACCGUCCCCUCGGGAAUGGCGAAUGGGACCCA [G39A U69G] | 0.305 |
| GGCCGGCAUGGUCCCAGCCUCCUCGCUGGCGCCGGCUGAGCAACAUUCCGAGGGGACCGUCCCCACGGUAAUGGCGAAUGGGACCCA [G39A U65A] | 0.396 |
| GGCCGGCAUGGUCCCAGCCUCCUCGCUGGCGCCGGCUGAGCAACAUUCCGAGGGGACCGUCCCCCCGGUAAUGGCGAAUGGGACCCA [G39A U65C] | 0.463 |
| GGCCGGCAUGGUCCCAGCCUCCUCGCUGGCGCCGGCUGCGCAACCUUCCGAGGGGACCGUCCCCUCGGUAAUGGCGAAUGGGACCCA [G39C A45C] | 0.198 |
